Data reported in patent US20250352667A1.
Residue numbers refer to the chain shown, from its start. In names and notes the source's numbering stands.

Experiments:
[1] = target: KEAP1 (wild-type full-length), His-tagged (human) (UniProt Q14145); assay: AlphaScreen, all variants on one plate; optimal condition (19.2 nM NRF2), KEAP1 150 nM; the reference itself
[2] = target: KEAP1 (wild-type full-length), His-tagged (human) (UniProt Q14145); assay: AlphaScreen; FLAG-NRF2 wt isoform 1 9.6 nM, His-KEAP1 150 nM; Rep 3; positive control for I86V
[3] = target: KEAP1 (wild-type full-length), His-tagged (human) (UniProt Q14145); assay: AlphaScreen; 153.6 nM FLAG-NRF2, 150 nM His-KEAP1; signal against NRF2 only; control for I28V
[4] = target: KEAP1 (wild-type full-length), His-tagged (human) (UniProt Q14145); assay: AlphaScreen; NRF2 wt isoform 1 38.4 nM, KEAP1 150 nM; signal against NRF2-only control; control for I86V
[5] = target: KEAP1 (wild-type full-length), His-tagged (human) (UniProt Q14145); assay: AlphaScreen; 9.6 nM FLAG-NRF2, 150 nM His-KEAP1; signal against NRF2 only; control for I28V
[6] = target: KEAP1 (wild-type full-length), His-tagged (human) (UniProt Q14145); assay: AlphaScreen; NRF2 wt isoform 1 2.4 nM, KEAP1 150 nM; signal against NRF2-only control; control for Q75R
[7] = target: KEAP1 (wild-type full-length), His-tagged (human) (UniProt Q14145); assay: AlphaScreen; 4.8 nM FLAG-NRF2, 150 nM His-KEAP1; Rep 2; control for I86V
[8] = target: KEAP1 (wild-type full-length), His-tagged (human) (UniProt Q14145); assay: AlphaScreen, all variants on one plate; lower condition (9.6 nM NRF2), KEAP1 150 nM; the reference itself
[9] = target: KEAP1 (wild-type full-length), His-tagged (human) (UniProt Q14145); assay: AlphaScreen; FLAG-NRF2 wt isoform 1 38.4 nM, His-KEAP1 150 nM; Rep 3; positive control for I86V
[10] = target: KEAP1 (wild-type full-length), His-tagged (human) (UniProt Q14145); assay: AlphaScreen; 1228.8 nM FLAG-NRF2, 150 nM His-KEAP1; signal against NRF2 only; control for I28V
[11] = target: KEAP1 (wild-type full-length), His-tagged (human) (UniProt Q14145); assay: AlphaScreen; mean over 9.6, 19.2 and 38.4 nM NRF2; 150 nM His-KEAP1
[12] = target: KEAP1 (wild-type full-length), His-tagged (human) (UniProt Q14145); assay: AlphaScreen; 38.4 nM FLAG-NRF2, 150 nM His-KEAP1; Rep 2; control for I86V
[13] = target: KEAP1 (wild-type full-length), His-tagged (human) (UniProt Q14145); assay: AlphaScreen; 9.6 nM FLAG-NRF2, 150 nM His-KEAP1; wild type set to 100%
[14] = target: KEAP1 (wild-type full-length), His-tagged (human) (UniProt Q14145); assay: AlphaScreen; FLAG-NRF2 wt isoform 1 9.6 nM, His-KEAP1 150 nM; Rep 1; positive control for I86V
[15] = target: KEAP1 (wild-type full-length), His-tagged (human) (UniProt Q14145); assay: AlphaScreen; NRF2 wt isoform 1 19.2 nM, KEAP1 150 nM; signal against NRF2-only control; control for Q75R
[16] = target: KEAP1 (wild-type full-length), His-tagged (human) (UniProt Q14145); assay: AlphaScreen, all variants on one plate; average of three conditions, KEAP1 150 nM; the reference itself
[17] = target: KEAP1 (wild-type full-length), His-tagged (human) (UniProt Q14145); assay: AlphaScreen; FLAG-NRF2 wt isoform 1 614.4 nM, His-KEAP1 150 nM; Rep 1; positive control for Q75R
[18] = target: KEAP1 (wild-type full-length), His-tagged (human) (UniProt Q14145); assay: AlphaScreen; 4.8 nM FLAG-NRF2, 150 nM His-KEAP1; Rep 1; control for I28V
[19] = target: KEAP1 (wild-type full-length), His-tagged (human) (UniProt Q14145); assay: AlphaScreen; FLAG-NRF2 I86V 76.8 nM, His-KEAP1 150 nM; Rep 1
[20] = target: KEAP1 (wild-type full-length), His-tagged (human) (UniProt Q14145); assay: AlphaScreen; FLAG-NRF2 Q75R 1228.8 nM, His-KEAP1 150 nM; Rep 2
[21] = target: KEAP1 (wild-type full-length), His-tagged (human) (UniProt Q14145); assay: AlphaScreen; FLAG-NRF2 Q75R 614.4 nM, His-KEAP1 150 nM; Rep 2
[22] = target: KEAP1 (wild-type full-length), His-tagged (human) (UniProt Q14145); assay: AlphaScreen; FLAG-NRF2 Q75R 153.6 nM, His-KEAP1 150 nM; Rep 1
[23] = target: KEAP1 (wild-type full-length), His-tagged (human) (UniProt Q14145); assay: AlphaScreen; 9.6 nM FLAG-NRF2, 150 nM His-KEAP1; against wild-type NRF2 isoform 1 = 100%
[24] = target: KEAP1 (wild-type full-length), His-tagged (human) (UniProt Q14145); assay: AlphaScreen; 1228.8 nM FLAG-NRF2, 150 nM His-KEAP1; Rep 1
[25] = target: KEAP1 (wild-type full-length), His-tagged (human) (UniProt Q14145); assay: AlphaScreen; 19.2 nM FLAG-NRF2, 150 nM His-KEAP1; Repeat 1 (same value as in Table 27)
[26] = target: KEAP1 (wild-type full-length), His-tagged (human) (UniProt Q14145); assay: AlphaScreen; mean over 9.6, 19.2 and 38.4 nM NRF2; 150 nM His-KEAP1; against wild-type NRF2 isoform 1 = 100%
[27] = target: KEAP1 (wild-type full-length), His-tagged (human) (UniProt Q14145); assay: AlphaScreen; 19.2 nM FLAG-NRF2, 150 nM His-KEAP1; signal against NRF2 only

Sequence of KEAP1 (wild-type full-length), His-tagged (human) (Q14145 2-624 limits assumed): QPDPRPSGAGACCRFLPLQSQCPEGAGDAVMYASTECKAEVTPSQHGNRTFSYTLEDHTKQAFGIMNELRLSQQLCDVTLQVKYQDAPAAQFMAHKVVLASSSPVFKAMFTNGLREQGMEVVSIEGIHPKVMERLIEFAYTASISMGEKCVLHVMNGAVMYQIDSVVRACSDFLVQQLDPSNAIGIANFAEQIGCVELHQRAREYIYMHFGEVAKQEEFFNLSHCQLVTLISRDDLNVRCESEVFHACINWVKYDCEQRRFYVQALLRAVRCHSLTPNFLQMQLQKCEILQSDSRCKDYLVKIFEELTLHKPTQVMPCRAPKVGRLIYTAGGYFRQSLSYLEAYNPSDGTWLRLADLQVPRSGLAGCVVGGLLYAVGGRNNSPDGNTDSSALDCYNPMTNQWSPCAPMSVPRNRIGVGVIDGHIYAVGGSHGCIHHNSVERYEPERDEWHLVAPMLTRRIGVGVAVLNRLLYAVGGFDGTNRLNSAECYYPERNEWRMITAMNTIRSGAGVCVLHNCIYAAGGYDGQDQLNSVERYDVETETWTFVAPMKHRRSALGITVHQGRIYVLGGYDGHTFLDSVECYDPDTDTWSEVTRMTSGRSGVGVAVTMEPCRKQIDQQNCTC

B1: NRF2 isoform 1 (wild-type full-length), FLAG-tagged (protein)
chain: MMDLELPPPGLPSQQDMDLIDILWRQDIDLGVSREVFDFSQRRKEYELEKQKKLEKERQEQLQKEQEKAFFAQLQLDEETGEFLPIQPAQHIQSETSGSANYSQVAHIPKSDALYFDDCMQLLAQTFPFVDDNEVSSATFQSLVPDIPGHIESPVFIATNQAQSPETSVAQVAPVDLDGMQQDIEQVWEELLSIPELQCLNIENDKLVETTMVPSPEAKLTEVDNYHFYSSIPSMEKEVGNCSPHFLNAFEDSFSSILSTEDPNQLTVNSLNSDATVNTDFGDEFYSAFIAEPSISNSMPSPATLSHSLSELLNGPIDVSDLSLCKAFNQNHPESTAEFNDSDSGISLNTSPSVASPEHSVESSSYGDTLLGLSDSEVEELDSAPGSVKQNGPKTPVHSSGDMVQPLSPSQGQSTHVHDAQCENTPEKELPVSPGHRKTPFTKDKHSSRLEAHLTRDELRAKALHIPFPVEKIINLPVVDFNEMMSKEQFNEAQLALIRDIRRRGKNKVAAQNCRKRKLENIVELEQDLDHLKDEKEKLLKEKGENDKSLHLLKKQLSTLYLEVFSMLRDEDGKPYSPSEYSLQQTRDGNVFLVPKSKKPDVKKN
A % Disruption in Binding [1] of 0%, an A-counts (NRF2 plus KEAP1) [2] of 2410 A-counts and a S/N [3] of 1.9 were found for B1 in this work. It also gave a S/N [4] of 3, a S/N [5] of 4.1 and a S/N [6] of 1.4. It also gave an A-counts [7] of 1620 A-counts, a % Disruption in Binding [8] of 0% and an A-counts (NRF2 plus KEAP1) [9] of 3130 A-counts. For the same binder, the S/N [10] was 1, the Average Binding [11] was 100% and the A-counts [12] was 2850 A-counts. The Binding Percentage (%) [13] was 100%, the A-counts (NRF2 plus KEAP1) [14] was 2640 A-counts and the S/N [15] was 3.4. For the same binder, the % Disruption in Binding (Reported Values) [16] was 0%, the A-counts (NRF2 plus KEAP1) [17] was 1650 A-counts and the A-counts [18] was 1120 A-counts.

B2: NRF2 isoform 1 (I86V full-length), FLAG-tagged (protein)
chain: B1 chain with I86V
An A-counts (NRF2 plus KEAP1) [19] of 2810 A-counts was found for B2 in this work.

B3: NRF2 isoform 1 (Q75R full-length), FLAG-tagged (protein)
chain: B1 chain with Q75R
An A-counts (NRF2 plus KEAP1) [20] of 653 A-counts, an A-counts (NRF2 plus KEAP1) [21] of 855 A-counts and an A-counts (NRF2 plus KEAP1) [22] of 1070 A-counts were found for B3 in this work.

B4: NRF2 isoform 1 (I28V full-length), FLAG-tagged (protein)
chain: B1 chain with I28V
A Binding Percentage (%) [23] of 77.6%, an A-counts [24] of 995 A-counts and an A-counts [25] of 1730 A-counts were found for B4 in this work. For the same binder, the Average Binding [26] was 69.8% and the S/N [27] was 3.2.
